# In the supplement of paper PMC10724198:
# ± gives the standard deviation of the averaged measurements.
# System: Saccharomyces cerevisiae
# Assay: protein stability index of tFT-peptide fusion (C-terminal peptide) (PSI (0-1 scale)); higher = more stable (slower turnover)
# Conditions: genetic background: wild type; temperature: 30 C
# 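Note: PSI is a weighted mean of sequencing reads over stability bins, variants kept only with over 10 reads, mCherry proximal and sfGFP distal, peptide attached via GGGS linker.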
row,Sequence,protein stability index
1,RRLLERSIKRSE,0.696 ± 0.016
2,FLWSSLYYARLD,0.75 ± 0.032
3,IESRGCSMQKRL,0.7489 ± 0.0039
4,PPLLPSPPRPPL,0.774 ± 0.078
5,VLHQWWCIGLGC,0.736 ± 0.013
6,TLKMKHKPKKNL,0.6583 ± 0.0035
7,SVRFPPTFTMTL,0.701 ± 0.042
8,PPCPSPPLFLPS,0.687 ± 0.063
9,SERKRMQRRVVY,0.655 ± 0.021
10,FSVGSPLSSPGI,0.713 ± 0.04
11,VLQSTTNPPTSW,0.631 ± 0.05
12,VGAPPCYPVSRL,0.74 ± 0.24
13,KKYYCRKLNTKK,0.715 ± 0.017
14,PWFGSSPRLAAC,0.7346 ± 0.0073
15,GVVVLGRRMGAG,0.6441 ± 0.0049
16,LDVAFLMSRFSS,0.731 ± 0.024
17,ALCEIWQSLLLA,0.456 ± 0.13
18,HPPHFPTPFFSP,0.702 ± 0.036
19,PAPPPHSAPPLP,0.739 ± 0.024
20,VYYDERLGDGHS,0.866 ± 0.021
21,GFCLIVGVVPAL,0.5179 ± 0.0024
22,ASSPPPRISAWL,0.7463 ± 0.0032
23,IFRLFAFHENRG,0.679 ± 0.051
24,RGCRVMATGVGV,0.651 ± 0.022
25,LLTCRPPQCLLC,0.6303 ± 0.0038
26,SSLPAPSPVPSP,0.731 ± 0.081

row,Sequence,protein stability index
1,YLGFRADVVFGK,0.712 ± 0.063
2,VFAHCSRHRGST,0.7103 ± 0.0029
3,NTDPAKRNHPRK,0.71379 ± 0.00067
4,DVFVFHVLKKYP,0.654 ± 0.025
5,TCDSGSEDNVAA,0.7053 ± 0.0032
6,QVFVRRSSPRVL,0.666 ± 0.014
7,HLSLFHIALPPP,0.6888 ± 0.0053
8,GARGGGRSRGTR,0.779 ± 0.091
9,EYFKTKQKKKKE,0.753 ± 0.12
10,LPASWSRVSFAG,0.6825 ± 0.0034
11,LLPPTPIAFPPS,0.728 ± 0.073
12,FGCLGVLGAGRC,0.713 ± 0.034
13,GTEYDENSGTNE,0.642 ± 0.011
14,TSYFRRRRSHSH,0.753 ± 0.01
15,TLGKPVGLARLS,0.692 ± 0.035
16,KKKMINQKKKKD,0.649 ± 0.016
17,IVPPALRSDGRR,0.668 ± 0.035
18,RRRGEREKRPRA,0.653 ± 0.021
19,RGRAPLRRPPGP,0.717 ± 0.048
20,SPCARPPPFPAR,0.724 ± 0.034
21,NKYRKNMKSSVP,0.671 ± 0.019
22,PTFRSRPFPPHP,0.703 ± 0.032
23,VRRGVGAVVFGG,0.655 ± 0.08
24,LLRLPCHLSQAS,0.68 ± 0.035
25,GWVKWGVGIGRG,0.734 ± 0.079
26,RDGIMTDDKRIS,0.707 ± 0.035

row,Sequence,protein stability index
1,HGVVGWKVNVGG,0.695 ± 0.018
2,RDLRGGIADSAG,0.684 ± 0.086
3,WHLQYTLIPYEA,0.635 ± 0.054
4,RGRSLPIPHTFP,0.714 ± 0.085
5,PVVLGVGMEGIS,0.7137 ± 0.0068
6,GSWRVLVLLGEL,0.636 ± 0.029
7,FALCLPPPSPPA,0.761 ± 0.026
8,ASSRPQRKSGKR,0.77 ± 0.0086
9,LPPPSPLPNSPL,0.716 ± 0.13
10,MQSRWAQVEGKE,0.673 ± 0.055
11,LFLSLFLFPSLS,0.57 ± 0.03
12,PVFSHTDSRYRP,0.681 ± 0.09
13,GCFDLNPDLFQG,0.688 ± 0.022
14,PVLELTLILRRS,0.6304 ± 0.0023
15,GSPLASSPSVID,0.704 ± 0.041
16,LPLSLPTPPALD,0.716 ± 0.075
17,RDILFIGINIYK,0.585 ± 0.049
18,DPTWIKKRPSIP,0.666 ± 0.044
19,HGCRLCFISSWL,0.663 ± 0.0057
20,VGEIMREVKGPD,0.72 ± 0.0079
21,RDSDSSLRHNSH,0.682 ± 0.061
22,VPPHPFFPLPPP,0.788 ± 0.099
23,FALTHSRSPSTS,0.799 ± 0.1
24,SSLVRFDSSAPL,0.665 ± 0.033
25,DKYKIDKKSKRK,0.683 ± 0.059
26,GGCGGRGGVVVR,0.687 ± 0.02

row,Sequence,protein stability index
1,LVTCPPPVGGPS,0.691 ± 0.0083
2,NTTCGVEQKEDK,0.649 ± 0.014
3,ISPRSRSCAYGV,0.734 ± 0.073
4,RLRRCPWLRAWR,0.7086 ± 0.005
5,TKSWSLNGTYLL,0.703 ± 0.034
6,FRVKVFGLPFWL,0.509 ± 0.028
7,KRVTYKRIRSKI,0.799 ± 0.029
8,KNKKRDKYRKKT,0.607 ± 0.011
9,SFATPCCYPLHF,0.713 ± 0.037
10,PSLPHSRPRTPT,0.707 ± 0.028
11,QNKNPNRTEKSK,0.701 ± 0.056
12,QGRYPLNVLIRI,0.57 ± 0.057
13,YPTCPPPSARRV,0.58 ± 0.025
14,LGRRVGWEVSGE,0.687 ± 0.024
15,GSSGGVWPDLNY,0.701 ± 0.012
16,GLVHGSWGCQCD,0.714 ± 0.015
17,APPRSPLFSSLF,0.638 ± 0.01
18,LLLFPRFPPPPL,0.711 ± 0.038
19,ASGSSVSFQVSF,0.65 ± 0.069
20,LGLFECAFLDRS,0.736 ± 0.013
21,LMFGDPIEANKE,0.67 ± 0.01
22,LWSIEVEKAKQK,0.708 ± 0.068
23,EGGRRHSVGEQE,0.679 ± 0.01
